Test results as given in patent US5661001.

Tests used:
[1] = target: α-thrombin
[2] = target: human thrombin (human) (UniProt P00734)

- inhibition of α-thrombin digesting Chromozym TH [1]: 82%
- titration against 2.0 nM thrombin in presence of 200 µM D-Val-Leu-Arg-p-nitroanilide: fraction of active molecules [2]: 0.97
Substance: [Cys^33 ]HV1--[Cys^33 ]HV1 dimer
